# Test results published in US6410296.
# B1: LM7, subclone of APNG1 expressing amino acids 1-280 (protein)
# chain: MADPVYVGGFLVRYDEPPGEAELFLPSGVVDRWLRDCRGPLPLNVNHDESATVGYVAGLQNVRAGLFCLGRVTSPKFLDIVQKASEKSELVSRGPPSESSLRPDGVLEFLSGSYSGLSLSSRRDINAADGAAGDAETACFKHVALCSVGRRRGTLAVYGRQPDWVMERFPDLTEADREALRNQLSGSGEVAAKESAESSAAAAVDPFQSDSYGLLGNSVDALYIQERLPKLRYDKRLVGVTARESYVKASVSPAEQETCDIKVEKERPKEPEQSHVPTES
# B2: LM8, subclone of APNG1 expressing amino acids 1-249 (protein)
# chain: MADPVYVGGFLVRYDEPPGEAELFLPSGVVDRWLRDCRGPLPLNVNHDESATVGYVAGLQNVRAGLFCLGRVTSPKFLDIVQKASEKSELVSRGPPSESSLRPDGVLEFLSGSYSGLSLSSRRDINAADGAAGDAETACFKHVALCSVGRRRGTLAVYGRQPDWVMERFPDLTEADREALRNQLSGSGEVAAKESAESSAAAAVDPFQSDSYGLLGNSVDALYIQERLPKLRYDKRLVGVTARESYVKA
# Target: CMV Colburn assembly protein precursor (product of APNG.5)
row,Protein,proteolytic activity
1,B1,Both are proteolytically active using assembly protein precursor as a substrate
2,B2,Both are proteolytically active using assembly protein precursor as a substrate
